Data from publication PMC10142772.

Molecular target: D. officinale MYB5 (DoMYB5), R2R3-MYB transcription factor (Dendrobium officinale)
Sequence (main, as listed by the source): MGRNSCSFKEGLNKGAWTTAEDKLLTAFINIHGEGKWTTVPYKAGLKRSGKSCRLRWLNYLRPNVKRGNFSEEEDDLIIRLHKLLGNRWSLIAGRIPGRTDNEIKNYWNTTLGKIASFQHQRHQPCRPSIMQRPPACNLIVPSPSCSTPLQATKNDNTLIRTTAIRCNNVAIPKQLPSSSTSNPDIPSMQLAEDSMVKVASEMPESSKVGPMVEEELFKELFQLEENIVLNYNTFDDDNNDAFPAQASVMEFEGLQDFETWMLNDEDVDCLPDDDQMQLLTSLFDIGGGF

- dual-luciferase assay in tobacco leaves: activity of the DoCHS promoter on co-expression of DoMYB5 and DobHLH24, against the control group (times higher than the control group): 4.8
- dual-luciferase assay in tobacco leaves: activity of the DoDFR promoter on co-expression of DoMYB5 and DobHLH24, against the control group (times higher than the control group): 2.5
Substance: D. officinale bHLH24 (DobHLH24), bHLH transcription factor (natural protein)
